Reference: patent publication US12404345B2, “Humanized antibodies against iRHOM2” (SCIRHOM GMBH, priority 2021, dated 2025)

T1: human iRhom2 (Homo sapiens, UniProt Q6PJF5)
T1 construct: MEF-DKO-hiR2-FL-WT-T7 cells stably expressing human iRhom2 full length wild type; expressed in transfected cells; host or cells: immortalized iRhom1/2-/- double knockout mouse embryonic fibroblasts, pMSCV retroviral infection
T1 sequence (Q6PJF5 1-856): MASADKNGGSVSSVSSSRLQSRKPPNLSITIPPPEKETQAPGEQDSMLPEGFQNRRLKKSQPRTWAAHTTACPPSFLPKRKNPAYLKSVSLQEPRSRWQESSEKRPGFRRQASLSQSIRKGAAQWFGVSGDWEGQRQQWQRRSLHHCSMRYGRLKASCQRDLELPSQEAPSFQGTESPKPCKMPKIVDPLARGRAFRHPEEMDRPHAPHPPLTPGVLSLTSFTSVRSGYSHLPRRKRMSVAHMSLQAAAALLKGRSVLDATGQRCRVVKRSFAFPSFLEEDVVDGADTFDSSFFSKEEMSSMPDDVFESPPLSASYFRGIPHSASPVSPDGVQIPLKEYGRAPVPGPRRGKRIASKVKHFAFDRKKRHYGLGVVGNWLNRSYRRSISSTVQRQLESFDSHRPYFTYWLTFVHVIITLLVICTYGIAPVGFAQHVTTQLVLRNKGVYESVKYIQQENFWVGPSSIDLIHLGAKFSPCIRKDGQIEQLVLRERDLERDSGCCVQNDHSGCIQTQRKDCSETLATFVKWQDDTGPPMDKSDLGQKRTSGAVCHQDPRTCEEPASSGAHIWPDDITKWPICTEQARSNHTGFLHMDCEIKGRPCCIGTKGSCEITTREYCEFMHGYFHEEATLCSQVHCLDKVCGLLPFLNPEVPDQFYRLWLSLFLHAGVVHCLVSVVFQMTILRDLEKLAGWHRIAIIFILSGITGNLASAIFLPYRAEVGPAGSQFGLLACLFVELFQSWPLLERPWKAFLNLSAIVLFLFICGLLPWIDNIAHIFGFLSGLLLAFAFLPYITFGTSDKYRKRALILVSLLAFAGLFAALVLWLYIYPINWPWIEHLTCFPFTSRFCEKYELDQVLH

B1: 16-B-03: humanized antibody binding human iRhom2; HCVD SEQ ID NO 1, LCVD SEQ ID NO 5 (antibody, V domains shown)
VH: QVTLRESGPALVKPTQTLTLTCTFSGFSLSTFALGVGWIRQPPGKALEWLAHIWWDDDKYYNPALKSRLTISKDTSKNQVVLTITNMDPVDTATYYCARITTYYYGMDYWGQGTLVTVSS
VL: EIVMTQSPDFQSVTPKEKVTITCRASQSIGNHLHWYQQKPDASPKLLIKYASQSISGVPSRFSGSGSGTDFTLTINSLEAEDAATYFCQQSYQWPLTFGQGTKLEIK
modifications: antibody sequences
B2: 16-B-05: humanized antibody binding human iRhom2; HCVD SEQ ID NO 9, LCVD SEQ ID NO 13 (antibody, V domains shown)
VH: QVTLRESGPALVKPTQTLTLTCTFSGFSLSTFALGVGWIRQPPGKALEWLAHIWWDEDKYYNPALKSRLTISKDTSKNQVVLTITNMDPVDTATYYCARITTYYYGMDYWGQGTLVTVSS
VL: EIVMTQSPDFQSVTPKEKVTITCRASQSIGNHLHWYQQKPDASPKLLIKYASQSISGVPSRFSGSGSGTDFTLTINSLEAEDAATYFCQQSYNWPLTFGQGTKLEIK
modifications: antibody sequences
B3: 16-B-07: humanized antibody binding human iRhom2; HCVD SEQ ID NO 17, LCVD SEQ ID NO 21 (antibody, V domains shown)
VH: QVTLRESGPALVKPTQTLTLTCTFSGFSLSTFALGVGWIRQPPGKALEWLAHIWWDEDKYYNPALKSRLTISKDTSKNQVVLTITNMDPVDTATYYCARITTYYYGMDYWGQGTLVTVSS
VL: EIVMTQSPDFQSVTPKEKVTITCRASQSIGNHLHWYQQKPDASPKLLIKYASQSISGVPSRFSGSGSGTDFTLTINSLEAEDAATYFCQQSYQWPLTFGQGTKLEIK
modifications: antibody sequences
B4: 23-B-04: humanized antibody binding human iRhom2; HCVD SEQ ID NO 25, LCVD SEQ ID NO 29 (antibody, V domains shown)
VH: QVTLRESGPALVKPTQTLTLTCTFSGFSLSTFGMGVGWIRQPPGKALEWLAHIWWDDEKYYNSALKSRLTISKDTSKNQVVLTITNMDPVDTATYYCARISNYGSNYWYFNVWGQGTLVTVSS
VL: AIQLTQSPSSLSASVGDRVTITCRASSSVSYMYWYQQKPGKAPKVLIYDTSNLASGVPSRFSGSGSGTDYTLTISSLQPEDFATYYCQQWNAYPLTFGQGTKLEIK
modifications: antibody sequences
B5: 42-B-02: humanized antibody binding human iRhom2; HCVD SEQ ID NO 33, LCVD SEQ ID NO 37 (antibody, V domains shown)
VH: QVTLRESGPALVKPTQTLTLTCTFSGFSLSTFGRGVGWIRQPPGKALEWLAHIWWDDEKYYNSALKSRLTISKDTSKNQVVLTITNMDPVDTATYYCARIQNYGSNYWYFDVWGQGTLVTVSS
VL: AIQLTQSPSSLSASVGDRVTITCRASSRISYMFWYQQKPGKAPKVLIYDTSNLASGVPSRFSGSGSGTDYTLTISSLQPEDFATYYCQQWNSYPLTFGQGTKLEIK
modifications: antibody sequences
B6: 42-B-04: humanized antibody binding human iRhom2; HCVD SEQ ID NO 41, LCVD SEQ ID NO 45 (antibody, V domains shown)
VH: QVTLRESGPALVKPTQTLTLTCTFSGFSLSTFGRGVGWIRQPPGKALEWLAHIWWDDEKYYNSALKSRLTISKDTSKNQVVLTITNMDPVDTATYYCARIQNYGSNYWYFDVWGQGTLVTVSS
VL: AIQLTQSPSSLSASVGDRVTITCRASSRISYMFWYQQKPGKAPKVLIYDTSNLASGVPSRFSGSGSGTDYTLTISSLQPEDFATYYCQQWNAYPLTFGQGTKLEIK
modifications: antibody sequences

Molecular target: T1, human iRhom2
Assay: Affinity determination by indirect FACS scatchard analysis on L929-2041-hiR2-FL-WT-T7 cells
Type: binding
Settings: 22 two-fold dilutions starting at 160 μg/ml, on ice 1 hour
Protocol: In this study, affinity measurements of the humanized antibodies 16-B-03, 16-B-05, 16-B-07, 23-B-04, 42-B-02 and 42-B-04 of the invention were performed by indirect FACS scatchard analysis on […] cells, a murine cell line expressing human iRhom2.
The resulting L929 mouse iRhom2 knock-out cell line was afterwards infected with different human iRhom2 constructs to obtain cell line derivatives, stably expressing different human iRhom2 proteins, that allow for binding analyses to different iRhom2 variants in the same genetic background.
In brief, mRhbdf2.3 IVT gRNA ([…]) was synthesized at Thermo Fisher Scientific GeneArt GmbH, Regensburg, Germany. One day post seeding in 24 well plates, L929 parental cells were transfected according to GeneArt CRISPR Nuclease mRNA user guide (Thermo Fisher Scientific, USA) with the gRNA/GeneArt Platinium Cas9 Nucelase (Thermo Fisher Scientific, USA) mix using Lipofectamine CRISPRMAX Transfection Reagent (Thermo Fisher Scientific, USA). 3 days post transfection, cells were lysed and DNA was extracted for amplification of specific PCR products using the mRhbdf2.3 fwd ([…])/mRhbdf2.3 rev ([…]) 5primer pair (Thermo Fisher Scientific, USA). […] Cleavage assay PCR products were also analyzed on Invitrogen 2% E-Gel Size Select agarose gels. Two rounds of subsequent sub cloning of the identified polyclonal L929 population using limited dilution technique were performed, using the Cleavage Detection Kit for identification of positive sub clones. Thereby, the most promising positive sub clone identified in the first round, named 1029, was further sub cloned in the second round to obtain the final clone, named 2041. The monoclonal cell population derived from this sub clone is named L929-2041 and was used for subsequent infection (according to the procedure described in Example 3) with the human iRhom2 construct hiR2-FL-WT-T7 for the generation of the cell lines L929-2041-hiR2-FL-WT-T7.
In brief, L929-2041-hiR2-FL-T7 were harvested with 10 mM EDTA in PBS, washed and resuspended in FACS buffer (PBS, 3% FBS, 0.05% sodium azide), and seeded in Nunc U-bottom 96-well plates (Thermo Fisher Scientific, USA) at approximately 3×10^5 cells per well. In order to pellet cells and remove supernatants, the plates were centrifuged at 1,500 rpm and 4° C. for 3 minutes. For primary staining, cells were resuspended in 100 μl per well of either FACS buffer alone (controls) or serial two-fold dilutions (in total 22 concentrations) of the humanized antibodies 16-B-03, 16-B-05, 16-B-07, 23-B-04, 42-B-02 and 42-B-04 of the invention in FACS buffer starting at 160 μg/ml and incubated on ice for 1 hour. Afterwards, plates were centrifuged at 1,500 rpm and 4° C. for 3 minutes and washed twice with 200 μl per well of FACS buffer. For secondary staining, cells were spun down and resuspended in 100 μl per well of PE-conjugated goat anti-human IgG F(ab′)2 detection fragment (Dianova, Germany) diluted 1:100 in FACS buffer. Protected from light, the cell suspensions were incubated on ice for 1 hour. Plates were then centrifuged at 1,500 rpm and 4° C. for 3 minutes and washed three times with 200 μl per well of FACS buffer. Finally, cells were resuspended in 150 μl per well of FACS buffer and analyzed using a BD Accuri™ C6 Plus flow cytometer (Becton Dickinson, Germany). Applying Prism8 software (GraphPad Software, USA), the respective KD value for each of the antibodies of the invention were calculated.

KD values for binding to L929-2041-hiR2-FL-T7 cells, subnanomolar to low nanomolar range:
B1
B2
B3
B4
B5
B6
